Laboratory results published in the DeepSol protein solubility set.

Assay: soluble on expression in E. coli; label from the status in PepcDB or PDB records

Which “soluble on expression in E. coli” value does the source give for “NSSAQLLELCTEHGLSISSLMMANELSLASEEEVKAKLWNIWQTMKTCIERGYQKEGILPGGLKLRRRAPALYRRLKAEGRNNVDPLTAMDWVDLFALSVNEQNAAGDRVVTAPTNGAAGIIPAVLCYYDTFVQEVDIDVCARYLLTAAAIGILYKKNASISGAEVGCQGEVGVACSMAAGALTEIMGGTVEHVENAAEIGMEHNLGLTCDPVGGLVQVPCIERNAMGAIKAINASRMALRGDGNHKVSLDKVIKTMMDTGKDMRSKYKETAKGGLAVN” here?
The value was “not soluble”.

With “NSSKSLEAELVRDRQELIDARKKELKAYMMMGVTAIKPLYDSDVNGSNKQAAKEILKAMRFESDGYFFAYDSQGINTLHAIKPSLEGKNLYDLKDENGVAVIAGLIDASQKGDGFLYFSWHKPTINAQAPKLGYAEYLQKWDWVLGTGIYIDDIDQQVAMQRELRTQELNQHT” as the sequence, how does the “soluble on expression in E. coli” value read?
The value was “soluble”.

With “NTFYEITLEDESVLLDEVVAIGYGTQSKATVTSGVVSVKKAELMSSVSASPLNNLQGKVAGLDIRQTTGQPGAQPVVLIRGGSTDPANDSPLFVIDGVVRSNMNGLNQEDIESMEVLKDAASAAIYGAKAANGIILITTKQGSSKD” as the sequence, how does the “soluble on expression in E. coli” value read?
The value was “not soluble”.

Which “soluble on expression in E. coli” value does the source give for “NTRGMALFADGGIVGTKPYAASGSYIKKMSDYCKGCHYDNKARSGEGSCPFNSLYWRFMDKHEKRLATNPRIGMIFRSWDNMEASQRQAILDT” here?
The value was “not soluble”.

For “PDFTPQKFKEKTAEQLRVLQASFLNSSVLTDEELNRLRAQTKLTRREIDAWFTEKKKSKALKEEKMEIDESNAGSS”, which “soluble on expression in E. coli” value is on record?
The value was “soluble”.

For “PDLYNHAIVIGYGRVGSMLAQLLQSRHVPLLVIDDNSEHVLKAHAAGIPAIRGSAAADLVLAEAHPERAKIAVLAIPQPLEAGEILAKLRALNPELTLVARAQNDAEVKHLLGHGADATVVAEHEMAHSLAEMVLSSTNH”, which “soluble on expression in E. coli” value is on record?
Its value is “not soluble”.

Which “soluble on expression in E. coli” value does the source give for “PDMKESMSDLYYEMISSAQKSIWIATPYFVPNESIRTALKAAATKGVEVRVMVPEKNDSFLTQYASRSYFPELLLEGIEVYSYQKGFMHQKVMIIDGDLASVGTANMDMRSFQLNFEVNVFFTDAEAIRTLEAHFEEDMQESEKLS” here?
The value was “soluble”.

Which “soluble on expression in E. coli” value does the source give for “PEGPEIRRAADNLEAAIKGKPLTDVWFAFPQLKTYQSQLIGQHVTHVETRGKALLTHFSNDLTLYSHNQLYGVWRVVDTGEEPQTTRVLRVKLQTADKTILLYSASDIEMLRPEQLTTHPFLQRVGPDVLDPNLTPEVVKERLLSPRFRNRQFAGLLLDQAFLAGLGNYLRVEILWQVGLTGNHKAKDLNAAQLDALAHALLEIPRFSYATRGQVDENKHHGALFRFKVFHRDGEPCERCGSIIEKTTLSSRPFYWCPGCQH” here?
Its value is “soluble”.

Which “soluble on expression in E. coli” value does the source give for “PIKMGWLKKQRSIVKNWQQRYFVLRAQQLYYYKDEEDTKPQGCMYLPGCTIKEIATNPEEAGKFVFEIIPASWDQNRMGQDSYVLMASSQAEMEEWVKFLRRVAG” here?
Its value is “soluble”.

With “PIPAWASGNLLTQAIRQQYYKPIDVDRMYGTIDSPKLEELFNKS” as the sequence, how does the “soluble on expression in E. coli” value read?
Its value is “soluble”.

With “PISNIFAGLLFYVLSDYVTEDTGIRITRAELEKTIVEHGGKLIYNVILKRHSIGDVRLISCKTTTECKALIDRGYDILHPNWVLDCIAYKRLILIEPNYCFNVSQKMRAVAEKRVDCLGDSFENDISETKLSSLYKSQLSLPPMGELEIDSEVRRFPLFLFSNRIAYVPRRKISTEDDIIEMKIKLFGGKITDQQSLCNLIIIPYTDPILRKDCMNEVHEKIKEQIKASDTIPKIARVVAPEWVDHSINENCQVPEEDFPVVNY” as the sequence, how does the “soluble on expression in E. coli” value read?
Its value is “soluble”.

For “PKDDRLSAWKFWALYAADTGGALRIDAGAVAAVTAGGNSLLAVGITEVIGDFHAGEIVEILGPEGEIIGRGEVAYDSAVLITMLGKQTAQLPEGLQRPVVHADYLSDYASRA”, which “soluble on expression in E. coli” value is on record?
Its value is “not soluble”.

Which “soluble on expression in E. coli” value does the source give for “PKYQSTAALLVNRSQDDTAATALNDQQADVGLIYTYKDLITRPVILNKVAKELKSTYPTLTSTALAKMITVSSTTNSQIFSIAVRSTSSQEAKDIANETASVFKNEAVKLMGKTISNVTIVSSGLKNNTPVFPNTK” here?
The value was “not soluble”.
